The subject of assay [1] is BoNT/A holotoxin, complex or the non-toxic LCs. The format is biochemical, Clostridium botulinum.
In assay [2] the target is T1, BoNT/A complex (Clostridium botulinum, UniProt P0DPI1). The format is biochemical.
Assay [3] has as its target T2, Trypsin (Sus scrofa, UniProt P00761). The format is biochemical.
In assay [4] the target is T1, BoNT/A complex.
In a further assay the target is Proteinase K (Parengyodontium album, UniProt P06873). Type of assay: biochemical.
A further assay relates to BoNT/A subtypes A1 to A5. Type of assay: biochemical, Clostridium botulinum.
The target of a further assay is Thermolysin (Bacillus thermoproteolyticus, UniProt P00800).
For assay [5], the target named is T2, Trypsin. The format is biochemical. This is another data set of the same source.
A further assay addresses BoNT/A light chain (Clostridium botulinum, UniProt P0DPI0).
For another assay, the target named is BoNT/B (Clostridium botulinum, UniProt P10844).

Where no end group is shown, it is not given here. [ ]: non-standard residue; d: D form. The star is where a group is joined. 5FAM = O=C1OC2(c3ccc(O)cc3Oc3cc(O)ccc32)c2ccc(C(=O)*)cc21; Dabcyl = CN(C)c1ccc(N=Nc2ccc(C(=O)*)cc2)cc1; Nle = CCCC[C@H](N)C(=O)O

Sequence of BoNT/A light chain (P0DPI0 2-448 limits assumed): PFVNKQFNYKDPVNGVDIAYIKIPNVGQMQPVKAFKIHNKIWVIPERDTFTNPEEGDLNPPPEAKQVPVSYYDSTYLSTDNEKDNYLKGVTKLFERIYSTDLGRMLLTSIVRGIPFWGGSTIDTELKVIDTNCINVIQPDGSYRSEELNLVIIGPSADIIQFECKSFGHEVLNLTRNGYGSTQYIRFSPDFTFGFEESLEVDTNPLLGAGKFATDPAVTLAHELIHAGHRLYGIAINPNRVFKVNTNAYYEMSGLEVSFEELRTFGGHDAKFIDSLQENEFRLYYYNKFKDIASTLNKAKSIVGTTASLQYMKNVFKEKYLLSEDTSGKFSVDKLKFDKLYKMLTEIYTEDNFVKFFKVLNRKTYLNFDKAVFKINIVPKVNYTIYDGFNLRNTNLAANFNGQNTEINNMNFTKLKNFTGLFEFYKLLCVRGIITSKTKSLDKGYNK

With “K(5FAM)IDEANQRATK(Dabcyl)[Nle]-NH2 [#201]”, the “cleavable by BoNT/A holotoxin, complex or non-toxic LCs alone” value in [1] is “can be cleaved”.
Still for that read-out and setting: under “5FAM-KIDEANQRATK(Dabcyl)[Nle]-NH2 [SEQ ID NO: 14]” stands “can be cleaved”.
For the compound `c1ccc(CN(CCN(Cc2ccccn2)Cc2ccccn2)Cc2ccccn2)nc1` [TPEN, N,N,N′,N′-Tetrakis (2-pyridylmethyl) ethylenediamine, reference compound], on BoNT/A complex [2], the “effect on BoNT metalloprotease activity” value is “suppressed BoNT metalloprotease activity”.
With “[4-Mu]TRIDEANQRATK[DABCYL] ({4‑Mu}-TRIDEANQRATK; not fully specified (residue 12); also: DABCYL label at C-terminal K, side chain or terminus not clear) [#111]”, the cleavage by trypsin entry in the assay with Trypsin [3] is “cleaved by trypsin”. Besides, the “cleavage by BoNT/A complex” value in the assay with BoNT/A complex [4] was “not by BoNT/A complex”.
As usually defined, the Km is the concentration of substrate that gives half-maximal velocity. As a reminder, the kcat is the number of substrate molecules converted per active site and unit of time at saturation. In the case of “[4-Mu]TRIDEANQRATK[DABCYL]-Hex ({4‑Mu}-TRIDEANQRATK; not fully specified (residue 12, C-terminus); also: DABCYL label and hexyl (-Hex) at C-terminal K, placement not clear) [#113]”, the Km with Proteinase K was 4.87 ± 0.96 µM; in the assay with Thermolysin, 6.45 ± 0.8 µM; in the assay with Trypsin [5] it was 13.3 ± 2.7 µM. In addition, the results for the kcat with Proteinase K, with Thermolysin and with Trypsin [5] were 30.64 ± 2.17 s⁻¹, 14.66 ± 0.71 s⁻¹ and 83.90 ± 8.35 s⁻¹, respectively. The “cleaved by BoNT/A subtypes (recombinant LCs)” value with BoNT/A subtypes A1 to A5 was “None”. In addition, the cleavage by trypsin entry with Trypsin [3] is on record as “cleaved by trypsin”. Moreover, in the assay with BoNT/A complex [4], the “cleavage by BoNT/A complex” value is reported as “not by BoNT/A complex”.
Regarding “Fam-K[5-Fam]IDEANQRATK[DABCYL]Nle-amide [SEQ ID NO: 13]”, in assay [1], the “cleavable by BoNT/A holotoxin, complex or non-toxic LCs alone” value is listed as “can be cleaved”.
For “K[5FAM]-IDEANQRATK[DABCYL]-Hex-CONH2 [#204]”, the “cleavage in microcolumn ALISSA” value at BoNT/A light chain is listed as “does not cleave the control peptide”.
Turning to “[5-Fam]TRIDEANQRATK[DABCYL] (5FAM-TRIDEANQRATK; not fully specified (residue 12); also: DABCYL label at C-terminal K, side chain or terminus not clear) [#110]”, the cleavage by trypsin entry with Trypsin [3] was “cleaved by trypsin”. For the same compound, in the assay with BoNT/A complex [4], the “cleavage by BoNT/A complex” value is recorded as “not by BoNT/A complex”.
Turning to “[5-Fam]TRIDEANQRATK[DABCYL]-Hex (5FAM-TRIDEANQRATK; not fully specified (residue 12, C-terminus); also: DABCYL label and hexyl (-Hex) at C-terminal K, placement not clear) [#112]”, in the assay with Proteinase K, the Km was 3.37 ± 0.67 µM and the kcat was 50.73 ± 3.28 s⁻¹. Also, the “cleaved by BoNT/A subtypes (recombinant LCs)” value in the assay on BoNT/A subtypes A1 to A5 is listed as “None”. Besides, in the assay with Thermolysin, the Km is 3.58 ± 0.76 µM and the kcat turned out to be 24.26 ± 1.72 s⁻¹. Besides, the cleavage by trypsin result with Trypsin [3] was “cleaved by trypsin”. The “cleavage by BoNT/B serotype” value with BoNT/B is on record as “not cleaved”. In addition, in the assay with Trypsin [5], the Km worked out at 3.75 ± 0.79 µM and the kcat stood at 58.72 ± 4.17 s⁻¹. Further, in the assay with BoNT/A complex [4], the “cleavage by BoNT/A complex” value is on record as “not by BoNT/A complex” and the “cleavage by BoNT/A serotype” value is given as “not cleaved”. The “cleavage upon addition of increasing concentrations of BoNT/A complex” value in the assay with BoNT/A complex [2] is recorded as “only little cleavage”.

The values above are taken from US11604185B2 (priority 2007, dated 2023).
